Positions count from the first letter of the chain named. Values belong to the molecule of their own block, whether it stands above or below them.
Assays:
Test in all cases: flow cytometry, alanine-scan library in HEK-293T
[1] = biological target: T1, hsGLUT4 L296A (human, UniProt P14672 1-509)
T1 sequence: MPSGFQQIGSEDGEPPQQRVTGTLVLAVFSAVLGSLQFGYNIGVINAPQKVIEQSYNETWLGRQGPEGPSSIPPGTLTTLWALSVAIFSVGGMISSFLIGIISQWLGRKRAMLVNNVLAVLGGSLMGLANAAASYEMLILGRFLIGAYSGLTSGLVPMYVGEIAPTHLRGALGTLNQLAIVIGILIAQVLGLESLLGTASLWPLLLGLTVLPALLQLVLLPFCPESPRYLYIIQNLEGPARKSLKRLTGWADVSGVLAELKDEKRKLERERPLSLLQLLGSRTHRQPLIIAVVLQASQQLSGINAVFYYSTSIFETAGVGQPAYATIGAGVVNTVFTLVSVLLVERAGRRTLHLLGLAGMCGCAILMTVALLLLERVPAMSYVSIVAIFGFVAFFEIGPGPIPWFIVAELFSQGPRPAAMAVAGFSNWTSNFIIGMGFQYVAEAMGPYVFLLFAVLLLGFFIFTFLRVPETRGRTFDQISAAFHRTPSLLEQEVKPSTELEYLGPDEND
Procedure, shortened: (§1)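 HEK-293T cells expressing individual GLUT4 alanine mutants were stained 48 h post-transfection with anti-GLUT4 scFv MAbs (2 μg/ml), then biotinylated secondary and streptavidin-PerCP, and read by high-throughput flow cytometry. Where used, cytochalasin B (10 uM final) was given for 30 min before and during primary antibody staining.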

[2] = biological target: T2, hsGLUT4 N304A (human, UniProt P14672 1-509)
T2 sequence: T1 sequence with A296L, N304A
Procedure, shortened: as §1

[3] = biological target: T3, hsGLUT4 E345A (human, UniProt P14672 1-509)
T3 sequence: T1 sequence with A296L, E345A
Procedure, shortened: as §1

[4] = biological target: T4, hsGLUT4 G446A (human, UniProt P14672 1-509)
T4 sequence: T1 sequence with A296L, G446A
Procedure, shortened: as §1

% of binding to wild type GLUT4 [1]: 105%
% of binding to wild type GLUT4 [2]: 79%
% of binding to wild type GLUT4 [3]: 93%
% of binding to wild type GLUT4 [4]: 108%
Molecule: 1F8 (antibody)

% of binding to wild type GLUT4 [2]: 11%
B2: AB105 (Fc fusion)
scFv: ALTQPSSVSANPGETVEITCSGDSSYYGWYQQKSPGSAPVTVIYANTNRPSDIPSRFSGSASGSTATLTITGVQAEDEAVYYCGSADSTYAGIFGAGTTLTVLGQSSRSSGGGGSSGGGGSAVTLDESGGGLQTPGGALSLICKASGFTFSSYTMNWVRQAPGKGLEWVGVISNSGRTTNYGAAVQGRATISRDNGQSTVRLQLNNLRAEDTGTYYCAKSSASASCAWWAGRSYPCSANRIDAWGHGTEVIVSS
notes: Bivalent scFv-Fc; also called MAb AB105; not shown: Fc fragment of human IgG1, cloned in frame with the scFv

The next lines start with the molecule.

B1: AB108 (Fc fusion)
scFv: ALTQPSSVSANLGGTVKITCSGSSGSYGWYQQKAPGSAPVTLIYRNDKRPSDIPSRFSGSESGSTGTLTITGVQAEDEAVYFCGGYDSSAGYAAFGAGTTLTVLGQSSRSSGGGGSSGGGGSAVTLDESGGGLQTPGGALSLVCKASGFTFSSHGMGWVRQAPGKGLEWVGSISTGRYTFYAPAVKGRATISRDNGQSTLRLQLNNLRAEDTGTYYCTKCAGLNGCGGGEIDAWGHGTEVIVSS
notes: Bivalent scFv-Fc; also called MAb AB108; not shown: Fc fragment of human IgG1, cloned in frame with the scFv
% of binding to wild type GLUT4 [1]: 72%
% of binding to wild type GLUT4 [2]: 72%
% of binding to wild type GLUT4 [3]: 88%
% of binding to wild type GLUT4 [4]: 86%

B3: AB101 (scFv)
scFv: ALTQPSSVSANPGETVKITCSGSSNSYGWYQQKSPGSAPVTVIYYNDKRPSDIPSRFSGSKSDSTHTLTITGVRAEDEAVYFCGSYDSTYVGIFGAGTTLTVLGQSSRSSGGGGSSGGGGSAVTLDESGGGLQTPGGTLSLVCKASGFTFSSNAMGWVRQAPGKGLEWVAGISSDGRYTKYGSAVKGRATISRDNGQSTVRLQLNNLRAEDTGTYFCAKAFGNNYRRIYAGQIDAWGHGTEVIVSS
notes: Chicken-derived clone used as a control; the four lead clones were tested as scFv-human IgG1 Fc; also called MAb AB101
% of binding to wild type GLUT4 [1]: 90%
% of binding to wild type GLUT4 [2]: 145%
% of binding to wild type GLUT4 [3]: 78%
% of binding to wild type GLUT4 [4]: 95%

B4: AB111 (Fc fusion)
scFv: ALTQPSSVSANPGETVKITCSGSGSWYGWFQQKSPGSAPVTVIYSNDKRPSDIPSRFSGSKSGSTSTLTITGVQVEDEAVYYCGNWDIFGAGTTLTVLGQSSRSSGGGGSSGGGGSAVTLDESGGGLQTPGGALSLVCKASGFTFSSHGMGWVRQAPGKGLEWVASISTGRYTFYAPAVKGRATISRDNGQSTVRLQLNNLRAEDTATYYCTKCAGLNGCGGGEIDAWGHGTEVIVSS
notes: Bivalent scFv-Fc; also called MAb AB111; not shown: Fc fragment of human IgG1, cloned in frame with the scFv
% of binding to wild type GLUT4 [1]: 144%
% of binding to wild type GLUT4 [2]: 125%
% of binding to wild type GLUT4 [3]: 200%
% of binding to wild type GLUT4 [4]: 71%
